{"source": "FireProtDB (doi:10.1021/bi027202n)", "proteins": {"B1": {"name": "Large ribosomal subunit protein bL9 wild type, P02417 (protein)", "chain": "MKVIFLKDVKGKGKKGEIKNVADGYANNFLFKQGLAIEATPANLKALEAQKQKEQRQAAEELANAKKLKEQLEKLTVTIPAKAGEGGRLFGSITSKQIAESLQAQHGLKLDKRKIELADAIRALGYTNVPVKLHPEVTATLKVHVTEQK"}}, "conditions": "Geobacillus stearothermophilus, pH 5.4, CD, sodium phosphate 10 mM, reversible: yes(>90%), whole UniProt chain shown; for denaturant m value / denaturant midpoint (higher = more stable) / unfolding free energy: 25 °C, Urea", "note": "“And” between values parts separate entries of the source, which are not always exact repeats. Equal values may be shown once."}
{"protein": "B1", "values": [{"measurement": "denaturant m value", "setting": "sodium chloride 100 mM", "result": "0.72 kcal/mol/M and 0.64 kcal/mol/M"}, {"measurement": "denaturant midpoint (higher = more stable)", "setting": "sodium chloride 100 mM", "result": "6.18 M and 3.16 M"}, {"measurement": "unfolding free energy", "setting": "sodium chloride 100 mM", "result": "4.45 kcal/mol and 2.02 kcal/mol"}, {"measurement": "denaturant m value", "setting": "sodium chloride 750 mM", "result": "0.62 kcal/mol/M and 0.66 kcal/mol/M"}, {"measurement": "denaturant midpoint (higher = more stable)", "setting": "sodium chloride 750 mM", "result": "7.76 M and 3.64 M"}, {"measurement": "unfolding free energy", "setting": "sodium chloride 750 mM", "result": "4.81 kcal/mol and 2.4 kcal/mol"}, {"measurement": "Tm", "setting": "Thermal, sodium chloride 100 mM", "result": 56, "unit": "°C"}]}
